For this test, the target named is human α4β7 integrin on cells (human) (UniProt P13612). The experiment in a line: RPMI8866 adhesion to MAdCAM-1.

Bridge positions count the residues as written; N and C are the ends. Square brackets hold non-standard residues; d marks the D form. Bip = N[C@@H](Cc1ccc(-c2ccccc2)cc1)C(=O)O; 1Nal = N[C@@H](Cc1cccc2ccccc12)C(=O)O; 2Nal = N[C@@H](Cc1ccc2ccccc2c1)C(=O)O; NMeR = CN[C@@H](CCCNC(=N)N)C(=O)O; Tic = O=C(O)[C@@H]1Cc2ccccc2CN1; β3hE = N[C@@H](CCC(=O)O)CC(=O)O; Cha = N[C@@H](CC1CCCCC1)C(=O)O; Cit = NC(=O)NCCC[C@H](N)C(=O)O; NMeK = CN[C@@H](CCCCN)C(=O)O; Pen = CC(C)(S)[C@H](N)C(=O)O; Dab = NCC[C@H](N)C(=O)O

One may read the IC50 as the concentration needed to halve the response being measured. Low values mean higher potency, high ones lower potency. As for Ac-[Pen][NMeR]SDTL[Pen][2Nal][dH][dK]-NH2 (disulfide 1-7 (inferred); also: homodimer via DIG) [SEQ ID NO: 118], the IC50 is above 25 nM. As for Ac-[Pen][NMeR]SDTL[Pen][1Nal][dL][dK]-NH2 (disulfide 1-7 (inferred); also: homodimer via DIG) [SEQ ID NO: 113], the figure is above 500 nM; as for Ac-[Pen][NMeR]SDTL[Pen][1Nal][dR][dK]-NH2 (disulfide 1-7 (inferred); also: homodimer via DIG) [SEQ ID NO: 114], above 100 nM; as for Ac-[Pen][NMeR]SDTL[Pen][Bip][β3hE][dK]-NH2 (disulfide 1-7 (inferred); also: homodimer via DIG) [SEQ ID NO: 135], below 10 nM. Ac-[Pen][NMeR]SDTL[Pen][1Nal][dH][dK]-NH2 (disulfide 1-7 (inferred); also: homodimer via DIG) [SEQ ID NO: 112] returned an IC50 above 50 nM. For Ac-[Pen][NMeR]SDTL[Pen][2Nal][dR][dK]-NH2 (disulfide 1-7 (inferred); also: homodimer via DIG) [SEQ ID NO: 120] the value was above 1000 nM. Ac-[Pen][NMeR]SDTL[Pen][2Nal][Tic][dK]-NH2 (disulfide 1-7 (inferred); also: homodimer via DIG) [SEQ ID NO: 121] came in with an IC50 above 100 nM.

In turn, Ac-[Pen][NMeR]SDTL[Pen][Bip][dE][dK]-NH2 (disulfide 1-7; also: dimer via DIG, attachment site not given here) [SEQ ID NO: 108] registered an IC50 above 10 nM.

B1: SEQ ID NO: 75 (peptide)
peptide: Ac-[Pen][NMeR]SDTL[Pen][2Nal]E-NH2
modifications: disulfide 1-7
SMILES: CC(=O)N[C@@H]1C(=O)N(C)[C@@H](CCCNC(=N)N)C(=O)N[C@@H](CO)C(=O)N[C@@H](CC(=O)O)C(=O)N[C@@H]([C@@H](C)O)C(=O)N[C@@H](CC(C)C)C(=O)N[C@H](C(=O)N[C@@H](Cc2ccc3ccccc3c2)C(=O)N[C@@H](CCC(=O)O)C(N)=O)C(C)(C)SSC1(C)C
In turn, B1 yielded an IC50 above 50 nM. As for Ac-[Pen][NMeR]SDTL[Pen][1Nal][Tic][dK]-NH2 (disulfide 1-7 (inferred); also: homodimer via DIG) [SEQ ID NO: 115], the figure is above 100 nM; as for Ac-[Pen][NMeR]SDTL[Pen][Tic][dE][dK]-NH2 (disulfide 1-7; also: dimer (monomer)2-DIG, DIG attachment place not given here) [SEQ ID NO: 80], above 50 nM.

In turn, Ac-[Pen][NMeR]SDTL[Pen][1Nal][dT][dK]-NH2 (disulfide 1-7 (inferred); also: homodimer via DIG) [SEQ ID NO: 116] showed an IC50 above 50 nM. For Ac-[Pen][NMeR]SDTL[Pen]W[Cit][dK]-NH2 (disulfide 1-7; also: dimer (monomer)2-DIG, DIG attachment place not given here) [SEQ ID NO: 84] the value was above 10 nM; for Ac-[Pen][NMeR]SDTL[Pen][2Nal][dT][dK]-NH2 (disulfide 1-7 (inferred); also: dimer via DIG linker) [SEQ ID NO: 140], above 10 nM. As for Ac-[Pen][NMeR]SDTL[Pen][2Nal][dF][dK]-NH2 (disulfide 1-7 (inferred); also: homodimer via DIG) [SEQ ID NO: 117], the figure is above 100 nM.

B2: SEQ ID NO: 157 (peptide)
peptide: Ac-[Pen][NMeR]SDFL[Pen][2Nal][dE]-NH2
modifications: disulfide 1-7
SMILES: CC(=O)N[C@@H]1C(=O)N(C)[C@@H](CCCNC(=N)N)C(=O)N[C@@H](CO)C(=O)N[C@@H](CC(=O)O)C(=O)N[C@@H](Cc2ccccc2)C(=O)N[C@@H](CC(C)C)C(=O)N[C@H](C(=O)N[C@@H](Cc2ccc3ccccc3c2)C(=O)N[C@H](CCC(=O)O)C(N)=O)C(C)(C)SSC1(C)C
B2 displayed an IC50 above 1000 nM. As for Ac-[Pen][NMeR]SDTL[Pen][Bip]E[NMeK]-NH2 (disulfide 1-7 (inferred); also: homodimer via DIG) [SEQ ID NO: 136], the figure is below 10 nM.

Molecule Ac-[Pen][NMeR]SDTL[Pen][2Nal][dL][dK]-NH2 (disulfide 1-7 (inferred); also: homodimer via DIG) [SEQ ID NO: 119] had an IC50 above 500 nM. For Ac-[Pen][NMeR]SDTL[Pen][1Nal][dF][dK]-NH2 (disulfide 1-7; also: dimer via DIG, attachment site not given here) [SEQ ID NO: 111] the value was above 100 nM; for Ac-[Pen][NMeR]SDTL[Pen]W[Tic][dK]-NH2 (disulfide 1-7; also: dimer via DIG, attachment site not given here) [SEQ ID NO: 109], above 100 nM.

B3: SEQ ID NO: 158 (peptide)
peptide: Ac-[Pen][NMeR]SD[Cha]L[Pen][2Nal][dE]-NH2
modifications: disulfide 1-7
SMILES: CC(=O)N[C@@H]1C(=O)N(C)[C@@H](CCCNC(=N)N)C(=O)N[C@@H](CO)C(=O)N[C@@H](CC(=O)O)C(=O)N[C@@H](CC2CCCCC2)C(=O)N[C@@H](CC(C)C)C(=O)N[C@H](C(=O)N[C@@H](Cc2ccc3ccccc3c2)C(=O)N[C@H](CCC(=O)O)C(N)=O)C(C)(C)SSC1(C)C
B3 gave an IC50 above 1000 nM. As for Ac-[Pen][NMeR]SDTL[Pen]WE[Dab]-NH2 (disulfide 1-7; also: dimer (monomer)2-DIG, DIG attachment place not given here) [SEQ ID NO: 97], the figure is below 10 nM; as for Ac-[Pen][NMeR]SDVL[Pen][2Nal][dE]-NH2 (disulfide 1-7 (inferred)) [SEQ ID NO: 156], above 100 nM.

Values taken from patent US20180148477A1 (published 2018).
